The series “SEC” concerns the molecule itself. Description: SEC. In general terms: SEC sorts molecules by how far they enter the pores of the column.
The series “native gel or EMSA” deals with the molecule itself. Kind of series: native gel or EMSA. (In EMSA bound probe runs differently from free probe, usually more slowly.)

Substitutions are numbered along the chain they refer to. Names may count otherwise.

B1: phosphorylated full-length human IRF-3 E388A (natural protein, UniProt Q14653 1-427, looked up)
chain: MGTPKPRILPWLVSQLDLGQLEGVAWVNKSRTRFRIPWKHGLRQDAQQEDFGIFQAWAEATGAYVPGRDKPDLPTWKRNFRSALNRKEGLRLAEDRSKDPHDPHKIYEFVNSGVGDFSQPDTSPDTNGGGSTSDTQEDILDELLGNMVLAPLPDPGPPSLAVAPEPCPQPLRSPSLDNPTPFPNLGPSENPLKRLLVPGEEWEFEVTAFYRGRQVFQQTISCPEGLRLVGSEVGDRTLPGWPVTLPDPGMSLTDRGVMSYVRHVLSCLGGGLALWRAGQWLWAQRLGHCHTYWAVSEELLPNSGHGPDGEVPKDKEGGVFDLGPFIVDLITFTEGSGRSPRYALWFCVGESWPQDQPWTKRLVMVKVVPTCLRALVEMARVGGASSLANTVDLHISNSHPLSLTSDQYKAYLQDLVEGMDFQGPGES
modifications: phosphorylated in vitro by GST-mTBK1; the phosphorylated residues are not listed
In the case of B1, in “SEC”, the binding result is “binds”.

B2: phosphorylated full-length human IRF-3 H290A (natural protein, UniProt Q14653 1-427, looked up)
chain: B1 chain with H290A, A388E
modifications: phosphorylated in vitro by GST-mTBK1; the phosphorylated residues are not listed
Turning to B2, in the series “SEC”, the binding result is recorded as “binds”.

B3: phosphorylated full-length human IRF-3 S339A (natural protein, UniProt Q14653 1-427, looked up)
chain: B1 chain with S339A, A388E
modifications: phosphorylated in vitro by GST-mTBK1; the phosphorylated residues are not listed
In the case of B3, in “SEC”, the binding result is given as “binds”.

B4: phosphorylated full-length human IRF-3 R285A (natural protein, UniProt Q14653 1-427, looked up)
chain: B1 chain with R285A, A388E
modifications: phosphorylated in vitro by GST-mTBK1; the phosphorylated residues are not listed
B4: the binding result in the series “SEC” is recorded as “binds”.

B5: phosphorylated full-length human IRF-3 H288A (natural protein, UniProt Q14653 1-427, looked up)
chain: B1 chain with H288A, A388E
modifications: phosphorylated in vitro by GST-mTBK1; the phosphorylated residues are not listed
B5: the binding result in the series “SEC” is “binds”.

B6: phosphorylated full-length human IRF-3 K313A (natural protein, UniProt Q14653 1-427, looked up)
chain: B1 chain with K313A, A388E
modifications: phosphorylated in vitro by GST-mTBK1; the phosphorylated residues are not listed
Turning to B6, the binding result in “SEC” was “binds”.

B7: phosphorylated full-length human IRF-3 H290A/K313A (natural protein, UniProt Q14653 1-427, looked up)
chain: B1 chain with H290A, K313A, A388E
modifications: phosphorylated in vitro by GST-mTBK1; the phosphorylated residues are not listed
Take B7: the binding result in “SEC” is given as “binds”.

B8: phosphorylated full-length human IRF-3 S396A (natural protein, UniProt Q14653 1-427, looked up)
chain: B1 chain with A388E, S396A
modifications: phosphorylated in vitro by GST-mTBK1; the phosphorylated residues are not listed
On to B8, for which the binding result in the series “native gel or EMSA” is on record as “binds”.

B9: phosphorylated full-length human IRF-3 R285A/K313A (natural protein, UniProt Q14653 1-427, looked up)
chain: B1 chain with R285A, K313A, A388E
modifications: phosphorylated in vitro by GST-mTBK1; the phosphorylated residues are not listed
Regarding B9, the binding result in the series “SEC” is “binds”.

B10: phosphorylated full-length human IRF-3 H288A/H290A/K313A (natural protein, UniProt Q14653 1-427, looked up)
chain: B1 chain with H288A, H290A, K313A, A388E
modifications: phosphorylated in vitro by GST-mTBK1; the phosphorylated residues are not listed
Regarding B10, in “SEC”, the binding result was “binds”.

(Values after article PMC7511445 (Journal of immunology (Baltimore, Md. : 1950), 2020).)
